Where a chain is given by its changes, count along the chain named.
B1: w.t.: wild type metA, homoserine O-succinyltransferase of E. coli (protein, UniProt P07623 2-309, looked up)
Homoserine …: PIRVPDELPAVNFLREENVFVMTTSRASGQEIRPLKVLILNLMPKKIETENQFLRLLSNSPLQVDIQLLRIDSRESRNTPAEHLNNFYCNFEDIQDQNFDGLIVTGAPLGLVEFNDVAYWPQIKQVLEWSKDHVTSTLFVCWAVQAALNILYGIPKQTRTEKLSGVYEHHILHPHALLTRGFDDSFLAPHSRYADFPAALIRDYTDLEILAETEEGDAYLFASKDKRIAFVTGHPEYDAQTLAQEFFRDVEAGLDPDVPYNYFPHNDPQNTPRASWRSHGNLLFTNWLNYYVYQITPYDLRHMNPTLD
B2: #11: feed-back resistant metA 11 gene product, amino acid sequence SEQ. ID. NO: 16 (protein, listed as Escherichia coli)
chain: MPIRVPDELPAVNFLREENVFVMSTSRASGQEIRPLKVLILNLMPKKIETENQFLRLLSNSPLQVDIQLLRIDSRESRNTPAEHLNNFYCNFEDIQDQNFDGLIVTGAPLGLVEFNDVAYWPQIKQVLEWSKDHVTSTLFVCWAVQAALNILYGIPKQTRTEKLSGVYEHHILHPHALLTRGFDDSFLAPHSRYADFPAALIRDYTDLEILAETEEGDAYLFASKDKRIAFVTGHPEYDAQTLAQEFFRDVEAGLDPDVPYNYFPHNDPQNTPRESWRSHGNLLFTNWLNYYVYQIAPYDLRHMYPTLD
B3: #32: feed-back resistant metA 32 gene product, amino acid sequence SEQ. ID. NO: 18 (protein, listed as Escherichia coli)
chain: B2 chain with S24T, E275A, N290H, A297T, Y305N
B4: #41: feed-back resistant metA 41 gene product, amino acid sequence SEQ. ID. NO: 22 (protein, listed as Escherichia coli)
chain: B2 chain with S24T, N79S, F140I, E275A, Y291N, A297T, M304L, Y305N
B5: #37: feed-back resistant metA 37 gene product, amino acid sequence SEQ. ID. NO: 20 (protein, listed as Escherichia coli)
chain: B2 chain with S24T, S29P, E114G, F140S, E275A, A297T, Y305N
B6: #10: feed-back resistant metA 10 gene product, amino acid sequence SEQ. ID. NO: 14 (protein, listed as Escherichia coli)
chain: B2 chain with S24T, K163Q, F222L, E275A, Q295R, A297T, Y305N

Key:
[1] = test system: homoserine O-succinyltransferase (metA); experiment: Feed back resistance of mutant metA in the presence of 100 mM methionine; assay type: biochemical, Escherichia coli; settings: w/ 100 mM Met; control without Met = 100
Experimental: To increase production of O-succinylhomoserine which is L-methionine precursor, overexpression of feed-back resistant metA gene encoding homoserine O-succinyltransferase was performed. PCT/US2007/009146 discloses the method for preparing feed-back resistant metA gene and activity of that.
The sequence of the feed-back resistant metA 10 gene is represented in SEQ. ID. NO: 13 and the amino acid sequence encoding by the gene is represented in SEQ. ID. NO: 14. The sequence of metA 11 gene is represented in SEQ. ID. NO: 15 and the amino acid sequence encoding by the gene is represented in SEQ. ID. NO: 16. The sequence of metA 32 gene is represented in SEQ. ID. NO: 17 and the amino acid sequence encoding by the gene is represented in SEQ. ID. NO: 18. The sequence of metA 37 gene is represented in SEQ. ID. NO: 19 and the amino acid sequence encoding by the gene is represented in SEQ. ID. NO: 20. The sequence of metA 41 gene is represented in SEQ. ID. NO: 21 and the amino acid sequence encoding by the gene is represented in SEQ. ID. NO: 22 (PCT/US2007/009146).

[2] = test system: W3-BTJA strain; experiment: O-succinylhomoserine production of feed back resistant metA in W3-BTJA strain, Erlenmeyer flask culture; assay type: cell-based, E. coli; settings: for O-succinylhomoserine production (%): metA plasmid in W3-BTJA strain, flask culture 64 hours, HPLC, wild type = 100%; for O-succinylhomoserine production compared with wild type: metA vector in W3-BTJA strain, flask culture
Experimental: The vector was electroporated into W3-BTJA strain and production capacity of the strain was checked using Erlenmeyer flask culture as described in Example 2-1, O-succinylhomoserine production of modified strain is measured, based on 100% of O-succinylhomoserine production of wild type strain.
To measure the methionine precursor production of each strain constructed in Example 1, Erlenmeyer flask culture was performed. Each strain was cultured on LB plate media at 31° C. for overnight. A single colony was inoculated in 3 ml of LB medium, followed by culture at 31° C. for 5 hours. The culture solution was 200 fold diluted in 250 ml Erlenmeyer flask containing 25 ml of methionine precursor producing medium, followed by culture at 31° C., 200 rpm for 64 hours. HPLC was performed to compare with methionine precursor production capacity (Table 2 and Table 3).

Molecule	% of specific activity retention [1] [%]	O-succinylhomoserine production (%) [2] [%]	O-succinylhomoserine production compared with wild type [2]
B1	7.6	100	
B2	94	425	the most effective production
B3	79	396	the most effective production
B4	74	389	
B5	83	227	
B6	97	392	the most effective production
